Measured values published in US8440804B2, “Polypeptides having modulatory effects on cells” (Ecole Normale Superieure de Lyon, priority 2006, dated 2013).

How the values were obtained:
[1] = system: tibialis anterior muscle atrophy; experiment: In vivo tibia muscles denervation assay; conditions: mice, plasmid electroporation in hind legs, 14 days post-denervation
Procedure: Vectors containing TRX, the R5G42, C7 or N9 aptamers or NaCl (control) were electroporated in mice hind legs (day 1) and an unilateral abolition of the motor innervation of the tibia muscles of the left hind leg was performed (day 3). After euthanasia of the mice (day 17) the tibialis anterior area was measured. Without denervation, the muscle area is relatively stable from one experiment to another (6.532.412+/−351.070, or 5.3% of variation). With denervation a reduced atrophy effect of about 27% and 48% is observed with aptamers R5G42 and N9 as compared to the atrophy effect obtained using the NaCl control (See FIGS. 19-20). The 100% of atrophy effect was evaluated using the data obtained with the NaCl control.
Another group of mice hind legs were electroporated after the injection of vectors containing TRX, the R5G42, C7 or N9 aptamers or with NaCl (control) at day 1. A unilateral abolition of the motor innervation of the tibia muscles of the left hind leg was performed at day 3 in order to induce a muscular atrophy. The mice were then euthanised at day 17, i.e. 14 days after sciatic denervation of the left hind leg. […] With denervation a reduced atrophy effect of about 27% and 48% is observed with aptamers R5G42 and N9 as compared to the atrophy effect obtained using the NaCl control (FIG. 18). […]

[2] = system: CNA; experiment: Yeast two-hybrid assay; type: binding, human; conditions: point mutant
From the text: (A) Yeast two-hybrid mating assay. TB50α yeast were co-transformed with pSH18-34T (bearing a lacZ reporter gene) and plasmids directing the expression of LexA alone or in fusion with peptide aptamers R5G42, R7G44 or R5G52. MB210a yeast were transformed with the selected cDNA library plasmids directing the expression of CNAβ, CNAγ, and NS5ATP2 truncated proteins. To obtain negative controls, MB210a yeast were also transformed with the empty prey plasmid (pJG4-5) and with pJG4-5 directing the expression of Ras and FKBP12 prey proteins. To obtain a positive control, MB210a yeast were transformed with pJG4-5 directing the expression of RG22 peptide aptamer prey fusion protein that interacts with LexA in the context of most LexA fusion proteins.
The inventors set out to map the R5G42 binding site on CNA. The CNA interacting clones selected in the yeast two-hybrid experiments corresponded to the carboxy-terminal regions of the beta and gamma isoforms, encompassing the calmodulin-binding domain and the auto-inhibitory domain (see FIG. 3B). […] The LexA-R5G52 bait protein may thus not be properly expressed and/or folded in this yeast two-hybrid setting.
The inventors explored the ability of R5G42 mutants having a one amino acid change as compared to R5G42, to bind to CNA beta and gamma C-Terminal fragments (FIG. 3b) and to NS5A-TP2. To this end, they proceeded to yeast-two hybrid assays as in example 3. CNA beta and gamma C-Terminal fragments (FIG. 3b) and NS5A-TP2 were cloned in three different plasmids (pSH18-34, pJK103 and pRB18-40), which differed from each other in the level of sensitivity of their promoter to the bait/prey complex formation, pSH18-34 having the highest sensitivity and pRB18-40 having the lowest.
The 5′ end of RH6 (upper case) matches part of the HA epitope tag and the 5′ ends of RH4, RH3 and RH7 (upper case) match the 5′ extremity of the ADH terminator. The PCR reactions was performed using pCMV-SPORT6-CnAβ as a template. CnAβCter Δ1, Δ2, CaM were constructed by combining oligonucleotides RH6/RH4, RH6/RH3, RH6/RH7, respectively. […]

B1: N9: R5G42 mutant having a one amino acid change (SEQ ID 33) (protein)
chain: MVKQIESKTAFQEALDAAGDKLVVVDFSAAWCGPSAVTFAVCALGPCKMIKPFFHSLSEKYSNVIFLEVDVDDCQDVASECEVKCMPTFQFFKKGQKVGEFSGANKEKLEATINELV
modifications: Aptamer R5G42 mutant N9
[1]
  reduced atrophy effect as compared to the NaCl control (tibialis anterior area): ~48%
[2]
  two hybrid interaction phenotype against CNA compared to R5G42: dramatic reduction
